Results reported in patent US9284543B2, “Neutral active soluble truncated PH20 polypeptides and uses thereof” (Halozyme, Inc., priority 2008, dated 2016).

Assay: Hyaluronidase activity of N-glycan site specific deglycosylation mutants (biotinylated-HA assay)
Assay type: biochemical
Settings: media of transfected CHO-S cells
Experimental: In short, a 4×BH 96-well plate was coated with biotinylated-HA (1.1 MDa). The 72 hour post transfection supernatant from cells transfected with human PH20 hyaluronidase carboxy-terminus deletion mutants was diluted in buffer at either pH 7.4 or pH 5.5 and added to individual wells of the plate and allowed to incubate at 37° C. for 90 minutes. The reaction was terminated by addition of 4M guanidine HCl. The wells were washed 4× with Phosphate Buffered Saline with Tween20 (PBST) to remove any digested biotinylated-HA followed by addition of streptavidin-HRP for 1 hour at room temperature. The wells were washed 4× with PBST and the plate was developed with TMB. The plate was read at 450 nm using an ELISA plate reader. Hyaluronidase activity (in Units/mL) was determined by interpolating the measured absorbance at 450 nm with a hyaluronidase reference standard curve. Full length mature human PH20 hyaluronidase and untransfected CHO cells were used as positive and negative controls.
PH20sHis (SEQ ID NO:210) was used as a template for mutagenesis of each asparagine residue to alanine using QuikChange® Site-Directed Mutagenesis Kit (Cat No. 200518, Stratagene). […] Six single mutants were generated, one for each of the N-glycosylation sites. Additionally, three double mutants and a triple mutant were generated for asparagines N82, N166 and N254, all of which are occupied by complex type glycans. Finally, a double mutant N368A/N393A was generated, lacking high mannose glycans. The mutants were transfected into CHO—S cells and expression was performed as described in Example 2A. Secretion into the media and hyaluronidase activity were determined as described in Examples 3 and 5, above.

Row | Molecule | Activity pH 5.5 | Activity pH 7.4
1 | N254A: PH20sHis N-glycosylation site mutant N254A, SEQ ID NO:205 (protein, His tag; PH20sHis N254A) MGVLKFKHIFFRSFVKSSGVSQIVFTFLLIPCCLTLNFRAPPVIPNVPFLWAWNAPSEFCLGKFDEPLDMSLFSFIGSPRINATGQGVTIFYVDRLGYYPYIDSITGVTVNGGIPQKISLQDHLDKAKKDITFYMPVDNLGMAVIDWEEWRPTWARNWKPKDVYKNRSIELVQQQNVQLSLTEATEKAKQEFEKAGKDFLVETIKLGKLLRPNHLWGYYLFPDCYNHHYKKPGYNGSCFNVEIKRNDDLSWLWAESTALYPSIYLNTQQSPVAATLYVRNRVREAIRVSKIPDAKSPLPVFAYTRIVFTDQVLKFLSQDELVYTFGETVALGASGIVIWGTLSIMRSMKSCLLLDNYMETILNPYIINVTLAAKMCSQVLCQEQGVCIRKNWNSSDYLHLNPDNFAIQLEKGGKFTVRGKPTLEDLEQFSEKFYCSCYSTLSCKEKADVKDTDAVDVCIADGVCIDAFLKPPMETEEPQIFYNASPSTLSHHHHHH | YES | YES
2 | N82A/N166A: PH20sHis double mutant, SEQ ID NO:206 (protein, His tag; PH20sHis N82A/N166A) MGVLKFKHIFFRSFVKSSGVSQIVFTFLLIPCCLTLNFRAPPVIPNVPFLWAWNAPSEFCLGKFDEPLDMSLFSFIGSPRIAATGQGVTIFYVDRLGYYPYIDSITGVTVNGGIPQKISLQDHLDKAKKDITFYMPVDNLGMAVIDWEEWRPTWARNWKPKDVYKARSIELVQQQNVQLSLTEATEKAKQEFEKAGKDFLVETIKLGKLLRPNHLWGYYLFPDCYNHHYKKPGYNGSCFNVEIKRNDDLSWLWNESTALYPSIYLNTQQSPVAATLYVRNRVREAIRVSKIPDAKSPLPVFAYTRIVFTDQVLKFLSQDELVYTFGETVALGASGIVIWGTLSIMRSMKSCLLLDNYMETILNPYIINVTLAAKMCSQVLCQEQGVCIRKNWNSSDYLHLNPDNFAIQLEKGGKFTVRGKPTLEDLEQFSEKFYCSCYSTLSCKEKADVKDTDAVDVCIADGVCIDAFLKPPMETEEPQIFYNASPSTLSHHHHHH | YES | YES
3 | N82A/N254A: PH20sHis double mutant, SEQ ID NO:207 (protein, His tag; PH20sHis N82A/N254A) MGVLKFKHIFFRSFVKSSGVSQIVFTFLLIPCCLTLNFRAPPVIPNVPFLWAWNAPSEFCLGKFDEPLDMSLFSFIGSPRIAATGQGVTIFYVDRLGYYPYIDSITGVTVNGGIPQKISLQDHLDKAKKDITFYMPVDNLGMAVIDWEEWRPTWARNWKPKDVYKNRSIELVQQQNVQLSLTEATEKAKQEFEKAGKDFLVETIKLGKLLRPNHLWGYYLFPDCYNHHYKKPGYNGSCFNVEIKRNDDLSWLWAESTALYPSIYLNTQQSPVAATLYVRNRVREAIRVSKIPDAKSPLPVFAYTRIVFTDQVLKFLSQDELVYTFGETVALGASGIVIWGTLSIMRSMKSCLLLDNYMETILNPYIINVTLAAKMCSQVLCQEQGVCIRKNWNSSDYLHLNPDNFAIQLEKGGKFTVRGKPTLEDLEQFSEKFYCSCYSTLSCKEKADVKDTDAVDVCIADGVCIDAFLKPPMETEEPQIFYNASPSTLSHHHHHH | YES | YES
4 | N166A/N254A: PH20sHis double mutant, SEQ ID NO:208 (protein, His tag; PH20sHis N166A/N254A) MGVLKFKHIFFRSFVKSSGVSQIVFTFLLIPCCLTLNFRAPPVIPNVPFLWAWNAPSEFCLGKFDEPLDMSLFSFIGSPRINATGQGVTIFYVDRLGYYPYIDSITGVTVNGGIPQKISLQDHLDKAKKDITFYMPVDNLGMAVIDWEEWRPTWARNWKPKDVYKARSIELVQQQNVQLSLTEATEKAKQEFEKAGKDFLVETIKLGKLLRPNHLWGYYLFPDCYNHHYKKPGYNGSCFNVEIKRNDDLSWLWAESTALYPSIYLNTQQSPVAATLYVRNRVREAIRVSKIPDAKSPLPVFAYTRIVFTDQVLKFLSQDELVYTFGETVALGASGIVIWGTLSIMRSMKSCLLLDNYMETILNPYIINVTLAAKMCSQVLCQEQGVCIRKNWNSSDYLHLNPDNFAIQLEKGGKFTVRGKPTLEDLEQFSEKFYCSCYSTLSCKEKADVKDTDAVDVCIADGVCIDAFLKPPMETEEPQIFYNASPSTLSHHHHHH | YES | YES
